Assay results published in patent publication US20260365743 (published 2026).
Substitutions are numbered along the chain they refer to.

T1: hNPR3 (human, UniProt P17342)
T1 chain: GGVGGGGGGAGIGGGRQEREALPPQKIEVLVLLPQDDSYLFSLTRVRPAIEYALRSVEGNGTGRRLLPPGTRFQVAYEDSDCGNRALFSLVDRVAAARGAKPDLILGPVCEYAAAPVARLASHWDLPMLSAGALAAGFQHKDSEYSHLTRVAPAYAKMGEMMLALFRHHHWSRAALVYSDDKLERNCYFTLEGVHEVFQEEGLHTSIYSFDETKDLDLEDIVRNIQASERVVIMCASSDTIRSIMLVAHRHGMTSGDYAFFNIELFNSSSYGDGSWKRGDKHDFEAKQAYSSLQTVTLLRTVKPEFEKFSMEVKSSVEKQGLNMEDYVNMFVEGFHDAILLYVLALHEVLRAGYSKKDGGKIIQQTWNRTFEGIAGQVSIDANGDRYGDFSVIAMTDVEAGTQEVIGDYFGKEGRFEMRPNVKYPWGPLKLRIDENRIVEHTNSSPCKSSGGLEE

T2: hNPR2 (human, UniProt P20594)
T2 chain: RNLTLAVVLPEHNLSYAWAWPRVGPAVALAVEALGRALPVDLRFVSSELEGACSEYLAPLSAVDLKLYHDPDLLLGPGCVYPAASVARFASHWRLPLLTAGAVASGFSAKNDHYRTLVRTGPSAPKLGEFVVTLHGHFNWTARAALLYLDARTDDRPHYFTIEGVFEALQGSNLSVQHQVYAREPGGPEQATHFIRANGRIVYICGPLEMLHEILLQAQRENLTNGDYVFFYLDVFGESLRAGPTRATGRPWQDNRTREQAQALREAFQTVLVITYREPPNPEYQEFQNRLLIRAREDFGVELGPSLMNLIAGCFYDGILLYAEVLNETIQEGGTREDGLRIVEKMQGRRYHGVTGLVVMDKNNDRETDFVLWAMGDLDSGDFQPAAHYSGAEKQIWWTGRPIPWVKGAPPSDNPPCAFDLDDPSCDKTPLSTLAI

B1: Hu135H3L1 (antibody, V domains shown)
VH: DVKLVESGEGLVKPGGSLRLSCAASGFSISTYGMSWVRQAPGKRLEWVAYINSGGNYIYYADSVKGRFTISRDNAKNSLYLQMNSLRAEDTAVYYCTRDRTTIVVHWYFDVWGQGTTVTVSS
VL: DIQLTQSPSSLSASVGDRVTITCSASSSLNFMHWYQQKPGKSPKRWIYDTSKLASGVPSRFSGSGSGTDYTLTISSLQPEDFATYYCHQRSSTFGGGTKVEIK
B2: Hu102H4L6 (antibody, V domains shown)
VH: B1 VH with S28T, I29F, T31S, G33A, N52S, S53R, N56D, T91S, R100Q, I103V
VL: DIQLTQSPSSLSASVGDRVTITCSASSSINYMHWYQQKPGKSPKRWIYDTSKLASGVPSRFSGSGSGTDYTLTISSLQPEDFATYYCHQRNSYTFGGGTKVEIK
B3: Hu128H3L1-6 (antibody, V domains shown)
VH: EVQLVQSGAEVKKPGASVKVSCKASGYTFTSYWMHWVRQAPGQGLEWMGRIDPNSGVTKYNEKFKSRVTLTVDKPSSPAYMELSSLRSEDTAVYYCARSSYLGRYFDVWGQGTTVTVSS
VL: EIVLTQSPATLSLSPGERATLKCSATSSVSYMYWYQQKPGQAPRLLIYDTYNLGSRIPARFSGSGSGTDYTLTISRLEPEDFAVYYCQQWSSYPPTFGQGTKLEIK
B4: Hu140H5L5-11 (antibody, V domains shown)
VH: B3 VH with E1Q, S100G, Y101G, G103R
VL: B3 VL with T20Q, K22S, T26S, G54A, R56G, I57V, A59D, D69S, Q99A
B5: RC25 V (antibody, V domains shown)
VH: QVQLVQSGAEVKKPGASVKVSCKASGYTFTNSWIGWFRQAPGQGLEWIGDIYPGGGYTNYNEIFKGKATMTADTSTNTAYMELSSLRSEDTAVYYCSRGIPGYAMDYWGQGTLVTVSS
VL: DIQMTQSPSSLSASVGDRVTMSCKSSQSLLNSGDQKNYLTWYQQKPGKAPKLLIYWASTGESGVPSRFSGSGSGTDFTFTISSLQPEDIATYYCQNDYSYPWTFGQGTKVEIKR

Molecular target: T1, hNPR3
Assay: ELISA

Row | Binder | binding result
1 | B1 | no binding
2 | B2 | no binding
3 | B3 | no binding
4 | B4 | no binding
5 | B5 | no binding

Molecular target: hNPR1 antigen (human)
Assay: ELISA

hNPR1 antigen (human), sequence (chain, as listed by the source): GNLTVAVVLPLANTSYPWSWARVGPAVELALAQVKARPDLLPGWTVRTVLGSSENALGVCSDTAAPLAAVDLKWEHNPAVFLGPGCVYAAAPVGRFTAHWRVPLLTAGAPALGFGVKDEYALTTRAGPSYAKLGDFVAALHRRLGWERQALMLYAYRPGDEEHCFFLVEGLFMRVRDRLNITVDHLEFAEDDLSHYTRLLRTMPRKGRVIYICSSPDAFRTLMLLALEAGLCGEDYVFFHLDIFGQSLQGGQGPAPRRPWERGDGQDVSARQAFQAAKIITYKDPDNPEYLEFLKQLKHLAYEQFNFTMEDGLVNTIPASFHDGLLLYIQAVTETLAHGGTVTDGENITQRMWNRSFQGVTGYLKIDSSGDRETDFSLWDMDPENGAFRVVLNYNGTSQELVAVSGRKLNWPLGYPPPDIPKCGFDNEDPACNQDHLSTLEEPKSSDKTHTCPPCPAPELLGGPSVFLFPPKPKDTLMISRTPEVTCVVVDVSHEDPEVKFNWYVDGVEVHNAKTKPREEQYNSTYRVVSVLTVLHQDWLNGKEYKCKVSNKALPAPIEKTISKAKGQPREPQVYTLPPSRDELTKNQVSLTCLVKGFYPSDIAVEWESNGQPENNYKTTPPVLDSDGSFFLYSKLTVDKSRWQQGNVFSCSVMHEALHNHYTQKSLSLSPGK

Row | Binder | binding result
6 | B5 | no binding

Molecular target: T2, hNPR2
Assay: ELISA

Row | Binder | binding result
7 | B1 | no binding
8 | B2 | no binding
9 | B3 | no binding
10 | B4 | no binding
11 | B5 | no binding
